The values below come from paper doi:10.1101/2025.09.16.670041 (bioRxiv, 2025).

Assay [1] has as its target biotinylated MBP-fused HERC2 RLD2 domain (residues 2941-3342) (human) (UniProt O95714). Kind of assay: native holdup assay.
In assay [2] the target is T1, HERC2 RLD2 domain (residues 2941-3342), untagged (human, UniProt O95714 2941-3342).
T1 sequence (looked up): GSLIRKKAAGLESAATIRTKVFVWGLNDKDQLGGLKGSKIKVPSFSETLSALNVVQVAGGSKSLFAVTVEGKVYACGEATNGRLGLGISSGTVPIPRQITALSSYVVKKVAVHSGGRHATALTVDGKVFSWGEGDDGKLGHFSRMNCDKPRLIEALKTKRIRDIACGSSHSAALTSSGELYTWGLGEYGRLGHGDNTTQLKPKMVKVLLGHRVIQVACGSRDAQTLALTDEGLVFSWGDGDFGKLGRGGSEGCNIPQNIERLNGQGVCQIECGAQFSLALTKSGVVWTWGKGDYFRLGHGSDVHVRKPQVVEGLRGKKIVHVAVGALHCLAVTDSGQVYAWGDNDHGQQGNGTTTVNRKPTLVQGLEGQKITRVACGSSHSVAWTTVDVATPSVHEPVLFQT
Kind of assay: fluorescence polarisation.

In assay [3] the target is T2, endogenous full-length HERC2 (human (endogenous in SH-SY5Y), UniProt O95714 1-4834). Kind of assay: native holdup assay.
T2 sequence (O95714 whole entry): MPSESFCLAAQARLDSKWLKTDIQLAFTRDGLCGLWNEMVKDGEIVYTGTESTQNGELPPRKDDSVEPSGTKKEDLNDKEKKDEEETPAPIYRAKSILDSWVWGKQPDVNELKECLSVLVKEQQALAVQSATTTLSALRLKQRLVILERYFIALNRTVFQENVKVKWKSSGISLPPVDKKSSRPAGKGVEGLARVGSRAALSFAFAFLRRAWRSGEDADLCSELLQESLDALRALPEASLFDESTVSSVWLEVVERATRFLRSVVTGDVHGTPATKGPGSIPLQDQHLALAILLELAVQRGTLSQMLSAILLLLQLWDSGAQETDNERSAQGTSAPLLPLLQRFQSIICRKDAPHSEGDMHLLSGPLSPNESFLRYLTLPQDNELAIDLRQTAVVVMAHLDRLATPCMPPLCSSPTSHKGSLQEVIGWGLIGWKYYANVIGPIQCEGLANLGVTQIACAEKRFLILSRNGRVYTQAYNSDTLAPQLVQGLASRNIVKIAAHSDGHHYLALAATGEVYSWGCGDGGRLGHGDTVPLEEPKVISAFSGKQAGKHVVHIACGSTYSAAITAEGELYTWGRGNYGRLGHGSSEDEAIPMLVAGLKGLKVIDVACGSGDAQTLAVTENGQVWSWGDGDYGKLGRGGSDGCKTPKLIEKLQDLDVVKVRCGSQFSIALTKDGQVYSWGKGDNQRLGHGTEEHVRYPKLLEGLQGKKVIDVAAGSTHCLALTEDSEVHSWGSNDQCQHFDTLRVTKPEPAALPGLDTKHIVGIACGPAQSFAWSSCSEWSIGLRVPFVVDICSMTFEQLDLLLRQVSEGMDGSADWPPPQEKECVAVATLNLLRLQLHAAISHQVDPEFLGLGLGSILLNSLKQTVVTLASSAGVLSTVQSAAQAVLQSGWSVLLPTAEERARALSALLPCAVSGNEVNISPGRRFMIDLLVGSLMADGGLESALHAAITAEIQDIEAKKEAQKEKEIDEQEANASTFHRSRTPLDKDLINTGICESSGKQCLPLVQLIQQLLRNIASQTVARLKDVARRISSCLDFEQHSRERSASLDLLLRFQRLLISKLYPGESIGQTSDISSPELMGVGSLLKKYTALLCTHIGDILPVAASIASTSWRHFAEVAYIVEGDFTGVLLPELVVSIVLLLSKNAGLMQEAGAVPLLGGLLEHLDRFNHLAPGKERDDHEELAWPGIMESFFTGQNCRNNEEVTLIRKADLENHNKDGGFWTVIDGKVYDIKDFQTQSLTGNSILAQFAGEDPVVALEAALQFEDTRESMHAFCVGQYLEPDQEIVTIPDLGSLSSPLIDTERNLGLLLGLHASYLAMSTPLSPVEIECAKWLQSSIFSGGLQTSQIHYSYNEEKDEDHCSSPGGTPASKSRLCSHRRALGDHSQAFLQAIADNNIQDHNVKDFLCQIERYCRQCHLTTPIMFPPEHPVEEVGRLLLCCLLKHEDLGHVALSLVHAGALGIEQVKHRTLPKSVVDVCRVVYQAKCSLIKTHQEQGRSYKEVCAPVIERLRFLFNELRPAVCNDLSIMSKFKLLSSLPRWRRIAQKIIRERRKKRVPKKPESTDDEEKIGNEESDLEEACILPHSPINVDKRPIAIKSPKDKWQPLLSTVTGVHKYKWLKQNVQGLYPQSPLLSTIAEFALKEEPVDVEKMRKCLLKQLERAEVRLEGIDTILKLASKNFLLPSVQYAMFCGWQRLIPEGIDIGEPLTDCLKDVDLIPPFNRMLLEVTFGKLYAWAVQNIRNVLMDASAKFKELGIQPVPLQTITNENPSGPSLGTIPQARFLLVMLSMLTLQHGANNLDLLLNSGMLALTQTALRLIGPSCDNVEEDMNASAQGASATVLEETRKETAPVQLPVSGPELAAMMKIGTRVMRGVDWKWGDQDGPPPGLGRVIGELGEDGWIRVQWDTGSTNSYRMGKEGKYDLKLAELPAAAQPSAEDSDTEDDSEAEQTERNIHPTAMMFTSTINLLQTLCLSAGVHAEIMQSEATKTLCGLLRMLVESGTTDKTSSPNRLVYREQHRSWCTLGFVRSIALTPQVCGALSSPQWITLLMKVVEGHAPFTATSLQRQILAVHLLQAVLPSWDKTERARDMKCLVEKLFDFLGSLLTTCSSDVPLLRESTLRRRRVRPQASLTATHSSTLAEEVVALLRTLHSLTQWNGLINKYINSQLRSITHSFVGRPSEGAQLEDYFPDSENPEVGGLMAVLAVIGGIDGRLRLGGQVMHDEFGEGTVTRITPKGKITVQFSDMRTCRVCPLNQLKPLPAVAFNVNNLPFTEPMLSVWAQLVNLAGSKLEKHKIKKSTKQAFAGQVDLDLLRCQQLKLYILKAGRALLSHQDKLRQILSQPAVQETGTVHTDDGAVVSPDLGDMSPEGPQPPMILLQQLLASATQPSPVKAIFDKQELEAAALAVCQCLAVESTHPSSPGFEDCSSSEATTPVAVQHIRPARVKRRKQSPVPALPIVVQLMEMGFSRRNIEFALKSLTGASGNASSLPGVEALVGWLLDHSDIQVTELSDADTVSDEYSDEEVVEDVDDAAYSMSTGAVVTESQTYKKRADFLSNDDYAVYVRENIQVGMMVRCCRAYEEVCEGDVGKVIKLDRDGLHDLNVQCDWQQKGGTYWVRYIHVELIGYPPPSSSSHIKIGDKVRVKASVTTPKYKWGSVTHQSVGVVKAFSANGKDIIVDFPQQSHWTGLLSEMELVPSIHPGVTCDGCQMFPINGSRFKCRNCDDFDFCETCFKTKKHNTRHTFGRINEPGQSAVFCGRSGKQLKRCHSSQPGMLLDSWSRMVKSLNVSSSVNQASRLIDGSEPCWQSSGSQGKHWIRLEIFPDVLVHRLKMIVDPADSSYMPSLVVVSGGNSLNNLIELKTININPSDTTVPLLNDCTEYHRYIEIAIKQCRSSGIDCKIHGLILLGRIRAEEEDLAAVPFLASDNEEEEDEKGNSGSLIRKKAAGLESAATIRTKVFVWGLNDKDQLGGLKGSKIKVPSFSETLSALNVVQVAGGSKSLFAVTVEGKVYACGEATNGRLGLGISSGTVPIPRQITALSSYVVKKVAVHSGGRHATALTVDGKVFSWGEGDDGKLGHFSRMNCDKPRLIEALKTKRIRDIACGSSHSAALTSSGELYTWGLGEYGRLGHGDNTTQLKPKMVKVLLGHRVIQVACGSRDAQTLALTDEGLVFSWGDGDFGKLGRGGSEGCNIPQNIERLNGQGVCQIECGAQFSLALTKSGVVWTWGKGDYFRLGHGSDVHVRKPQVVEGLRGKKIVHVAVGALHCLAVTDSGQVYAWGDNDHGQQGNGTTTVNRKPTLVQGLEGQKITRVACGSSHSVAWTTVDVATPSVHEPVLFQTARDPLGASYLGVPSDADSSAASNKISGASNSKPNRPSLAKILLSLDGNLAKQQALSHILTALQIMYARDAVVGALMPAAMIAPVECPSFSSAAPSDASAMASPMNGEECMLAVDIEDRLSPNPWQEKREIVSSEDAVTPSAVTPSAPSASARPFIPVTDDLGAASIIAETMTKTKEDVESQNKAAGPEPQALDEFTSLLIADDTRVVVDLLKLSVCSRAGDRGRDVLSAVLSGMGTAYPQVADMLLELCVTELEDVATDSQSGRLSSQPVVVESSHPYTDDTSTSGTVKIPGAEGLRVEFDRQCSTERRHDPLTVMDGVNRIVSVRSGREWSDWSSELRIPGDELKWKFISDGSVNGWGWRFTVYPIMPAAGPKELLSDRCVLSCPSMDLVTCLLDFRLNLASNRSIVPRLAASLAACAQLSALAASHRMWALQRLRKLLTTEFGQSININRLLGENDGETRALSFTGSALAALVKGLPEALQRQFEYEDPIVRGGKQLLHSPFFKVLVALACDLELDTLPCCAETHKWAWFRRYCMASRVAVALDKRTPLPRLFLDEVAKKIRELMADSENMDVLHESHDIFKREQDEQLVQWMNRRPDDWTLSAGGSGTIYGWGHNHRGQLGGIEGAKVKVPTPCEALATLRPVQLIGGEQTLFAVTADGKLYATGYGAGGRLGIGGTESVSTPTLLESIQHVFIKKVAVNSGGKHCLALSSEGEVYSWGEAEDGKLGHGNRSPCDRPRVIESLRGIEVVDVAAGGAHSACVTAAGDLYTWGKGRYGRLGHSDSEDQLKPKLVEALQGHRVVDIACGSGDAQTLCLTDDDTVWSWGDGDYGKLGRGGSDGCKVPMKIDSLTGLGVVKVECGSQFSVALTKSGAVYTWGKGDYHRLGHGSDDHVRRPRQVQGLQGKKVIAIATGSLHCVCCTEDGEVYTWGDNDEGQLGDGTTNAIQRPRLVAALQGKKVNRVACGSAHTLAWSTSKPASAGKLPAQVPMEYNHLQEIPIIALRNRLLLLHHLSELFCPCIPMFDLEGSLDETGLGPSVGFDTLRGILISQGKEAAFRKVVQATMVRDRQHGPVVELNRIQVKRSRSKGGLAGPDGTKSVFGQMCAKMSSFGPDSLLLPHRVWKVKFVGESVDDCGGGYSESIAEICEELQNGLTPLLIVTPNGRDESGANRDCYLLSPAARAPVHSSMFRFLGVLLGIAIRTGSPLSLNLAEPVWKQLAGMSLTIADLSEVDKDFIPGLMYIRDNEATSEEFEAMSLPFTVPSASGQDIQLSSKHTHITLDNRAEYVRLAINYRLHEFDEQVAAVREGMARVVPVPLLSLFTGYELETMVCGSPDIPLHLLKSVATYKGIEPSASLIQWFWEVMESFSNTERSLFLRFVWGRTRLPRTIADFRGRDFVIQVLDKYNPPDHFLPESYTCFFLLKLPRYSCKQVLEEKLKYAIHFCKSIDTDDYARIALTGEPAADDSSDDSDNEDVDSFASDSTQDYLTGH
Assay [4] addresses T2, endogenous full-length HERC2. Description: native holdup assay. The source holds these as a separate data set.
In assay [5] the target is T3, endogenous full-length UBE3A from mouse brain (mouse (endogenous in mouse brain), UniProt O08759 1-870).
T3 sequence (looked up): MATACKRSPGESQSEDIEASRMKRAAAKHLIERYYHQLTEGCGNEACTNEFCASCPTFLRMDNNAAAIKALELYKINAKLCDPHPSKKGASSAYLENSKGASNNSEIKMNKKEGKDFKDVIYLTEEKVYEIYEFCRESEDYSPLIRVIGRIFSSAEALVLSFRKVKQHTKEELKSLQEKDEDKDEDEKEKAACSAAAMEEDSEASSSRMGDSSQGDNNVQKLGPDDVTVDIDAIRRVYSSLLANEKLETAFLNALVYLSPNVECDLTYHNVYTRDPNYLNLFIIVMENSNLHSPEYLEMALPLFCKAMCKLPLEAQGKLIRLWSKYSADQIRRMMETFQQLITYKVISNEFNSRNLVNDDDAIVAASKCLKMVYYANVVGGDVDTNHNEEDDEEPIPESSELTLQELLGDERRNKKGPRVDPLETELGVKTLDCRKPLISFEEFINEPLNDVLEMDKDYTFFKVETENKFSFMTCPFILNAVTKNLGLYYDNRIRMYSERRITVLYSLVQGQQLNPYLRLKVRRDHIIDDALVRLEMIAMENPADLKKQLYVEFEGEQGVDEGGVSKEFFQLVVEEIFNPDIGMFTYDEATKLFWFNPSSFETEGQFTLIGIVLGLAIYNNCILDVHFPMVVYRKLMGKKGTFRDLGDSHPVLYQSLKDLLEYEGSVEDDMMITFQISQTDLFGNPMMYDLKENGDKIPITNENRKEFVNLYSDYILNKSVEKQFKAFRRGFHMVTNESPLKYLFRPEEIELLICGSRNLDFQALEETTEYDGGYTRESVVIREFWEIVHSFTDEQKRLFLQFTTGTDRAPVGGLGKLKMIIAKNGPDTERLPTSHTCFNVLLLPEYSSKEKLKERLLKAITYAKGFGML
Kind of assay: native holdup assay.

The target of assay [6] is T4, endogenous full-length ARID4A (human (endogenous in SH-SY5Y), UniProt P29374 1-1257).
T4 sequence (looked up): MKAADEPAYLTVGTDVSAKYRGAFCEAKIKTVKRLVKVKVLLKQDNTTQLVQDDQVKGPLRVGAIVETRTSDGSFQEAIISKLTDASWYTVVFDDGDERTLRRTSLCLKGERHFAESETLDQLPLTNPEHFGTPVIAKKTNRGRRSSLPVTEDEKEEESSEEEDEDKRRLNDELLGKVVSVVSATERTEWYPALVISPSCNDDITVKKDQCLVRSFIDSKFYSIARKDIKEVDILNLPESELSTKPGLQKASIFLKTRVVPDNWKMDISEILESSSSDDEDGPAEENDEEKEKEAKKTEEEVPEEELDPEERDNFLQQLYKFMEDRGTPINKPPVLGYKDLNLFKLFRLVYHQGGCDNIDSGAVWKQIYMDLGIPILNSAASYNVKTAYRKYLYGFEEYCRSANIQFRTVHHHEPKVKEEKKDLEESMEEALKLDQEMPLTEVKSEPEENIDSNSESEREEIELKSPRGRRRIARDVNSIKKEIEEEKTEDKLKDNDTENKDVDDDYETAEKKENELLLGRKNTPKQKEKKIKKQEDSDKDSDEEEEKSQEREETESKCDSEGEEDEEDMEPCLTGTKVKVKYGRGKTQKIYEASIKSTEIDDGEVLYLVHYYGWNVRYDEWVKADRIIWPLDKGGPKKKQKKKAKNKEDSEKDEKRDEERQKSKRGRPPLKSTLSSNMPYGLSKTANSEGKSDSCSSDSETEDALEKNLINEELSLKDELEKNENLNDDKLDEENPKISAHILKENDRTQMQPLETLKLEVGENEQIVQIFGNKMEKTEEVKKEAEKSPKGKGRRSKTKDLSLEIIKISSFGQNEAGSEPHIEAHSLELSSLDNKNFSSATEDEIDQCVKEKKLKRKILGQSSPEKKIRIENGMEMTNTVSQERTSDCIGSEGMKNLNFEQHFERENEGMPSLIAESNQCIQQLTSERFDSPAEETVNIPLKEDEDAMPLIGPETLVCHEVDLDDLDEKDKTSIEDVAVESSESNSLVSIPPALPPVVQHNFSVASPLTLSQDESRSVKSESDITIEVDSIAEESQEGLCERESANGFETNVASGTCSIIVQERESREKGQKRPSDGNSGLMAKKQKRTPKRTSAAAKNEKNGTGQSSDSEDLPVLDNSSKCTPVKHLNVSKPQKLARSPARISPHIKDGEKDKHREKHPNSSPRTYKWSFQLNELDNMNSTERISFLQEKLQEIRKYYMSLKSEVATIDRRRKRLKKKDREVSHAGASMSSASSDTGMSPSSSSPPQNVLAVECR
Kind of assay: native holdup assay.

In assay [7] the target is endogenous full-length UBE3A from SH-SY5Y cells (human (endogenous in SH-SY5Y), UniProt Q05086 1-875). Description: native holdup assay.
Assay [8] concerns the target endogenous full-length PCM1 (human (endogenous in SH-SY5Y), UniProt Q15154 1-2024). Kind of assay: native holdup assay.
Assay [9] addresses endogenous full-length DOCK10 (human (endogenous in SH-SY5Y), UniProt Q96BY6 1-2186). Description: native holdup assay.

Several values for one entry are separate records, joined by “and”; a condition that tells them apart may be missing. Equal entries are not always repeated. Where two headings read alike, the source gives them in different places. No end group written: not given here. fluorescein = fluorescein (N-terminal fluorescent label on the UBE3A peptide)

On to “endogenous full-length UBE3A from zebrafish embryos (enzyme)”, for which, in assay [1], the Kd stood at 100 nM.

“endogenous full-length MYT1 (from UniProt Q01538 1-1121) (natural protein)”: in assay [1], the Kd is above 10000 nM.

Regarding HTKEELKSLQAKDEDKDEDEKEKAA [non-labeled UBE3A peptide residues 150-174], the Kd in assay [2] was below 100 nM.

B1: biotinylated full-length MBP-fused UBE3A protein (enzyme, human, UniProt Q05086-2 1-852, looked up)
chain: MKRAAAKHLIERYYHQLTEGCGNEACTNEFCASCPTFLRMDNNAAAIKALELYKINAKLCDPHPSKKGASSAYLENSKGAPNNSCSEIKMNKKGARIDFKDVTYLTEEKVYEILELCREREDYSPLIRVIGRVFSSAEALVQSFRKVKQHTKEELKSLQAKDEDKDEDEKEKAACSAAAMEEDSEASSSRIGDSSQGDNNLQKLGPDDVSVDIDAIRRVYTRLLSNEKIETAFLNALVYLSPNVECDLTYHNVYSRDPNYLNLFIIVMENRNLHSPEYLEMALPLFCKAMSKLPLAAQGKLIRLWSKYNADQIRRMMETFQQLITYKVISNEFNSRNLVNDDDAIVAASKCLKMVYYANVVGGEVDTNHNEEDDEEPIPESSELTLQELLGEERRNKKGPRVDPLETELGVKTLDCRKPLIPFEEFINEPLNEVLEMDKDYTFFKVETENKFSFMTCPFILNAVTKNLGLYYDNRIRMYSERRITVLYSLVQGQQLNPYLRLKVRRDHIIDDALVRLEMIAMENPADLKKQLYVEFEGEQGVDEGGVSKEFFQLVVEEIFNPDIGMFTYDESTKLFWFNPSSFETEGQFTLIGIVLGLAIYNNCILDVHFPMVVYRKLMGKKGTFRDLGDSHPVLYQSLKDLLEYEGNVEDDMMITFQISQTDLFGNPMMYDLKENGDKIPITNENRKEFVNLYSDYILNKSVEKQFKAFRRGFHMVTNESPLKYLFRPEEIELLICGSRNLDFQALEETTEYDGGYTRDSVLIREFWEIVHSFTDEQKRLFLQFTTGTDRAPVGGLGKLKMIIAKNGPDTERLPTSHTCFNVLLLPEYSSKEKLKERLLKAITYAKGFGML
modifications: biotin on the AviTag (in vivo biotinylation)
B1 came in with a Kd in assay [3] of 560 ± 150 nM.

In [4], HTKEELKSLQAKDEDKDEDEKEKAA (also: biotin, position not given here) [biotinylated UBE3A peptide containing amino acids 150-174] gave an equilibrium dissociation constant (Kd) of 340 ± 90 nM.

Molecule AKDEDKDEDEKEKAA (peptide, UniProt Q05086-2 160-174, looked up) [UBE3A peptide residues 160-174] showed a Kd in [2] of 6850 ± 290 nM.

B2: biotinylated MBP-fused HERC2 RLD2 domain (residues 2941-3342) (domain or fragment, human, UniProt O95714 2941-3342, looked up)
chain: GSLIRKKAAGLESAATIRTKVFVWGLNDKDQLGGLKGSKIKVPSFSETLSALNVVQVAGGSKSLFAVTVEGKVYACGEATNGRLGLGISSGTVPIPRQITALSSYVVKKVAVHSGGRHATALTVDGKVFSWGEGDDGKLGHFSRMNCDKPRLIEALKTKRIRDIACGSSHSAALTSSGELYTWGLGEYGRLGHGDNTTQLKPKMVKVLLGHRVIQVACGSRDAQTLALTDEGLVFSWGDGDFGKLGRGGSEGCNIPQNIERLNGQGVCQIECGAQFSLALTKSGVVWTWGKGDYFRLGHGSDVHVRKPQVVEGLRGKKIVHVAVGALHCLAVTDSGQVYAWGDNDHGQQGNGTTTVNRKPTLVQGLEGQKITRVACGSSHSVAWTTVDVATPSVHEPVLFQT
modifications: biotin on the AviTag (in vivo biotinylation)
Turning to B2, the Kd in assay [5] was around 100 nM; in [6] it was below 100 nM; in [7], < 100 nM and ~100 nM; in assay [8], 260 ± 40 nM; in assay [9] it was 2600 ± 500 nM.

Take fluorescein-SLQAKDEDKDEDEKEKAA [UBE3A 18-aa linked to fluorescein]: the binding result in assay [2] is recorded as “binds”.

B3: UBE3A peptide residues 150-200 (peptide, UniProt Q05086-2 150-200, looked up)
peptide: HTKEELKSLQAKDEDKDEDEKEKAACSAAAMEEDSEASSSRIGDSSQGDNN
For the molecule B3, the binding result in assay [2] is reported as “binds”.
